The values below come from US9988424 (DUKE UNIVERSITY, dated 2018).

Test [1] deals with T1, AE.A244 gD+ gp120 (HIV-1).
T1 construct: domain: gp120; also called AE.A244 gp120gD+
In words: ELISA. (In general: An ELISA detects its analyte on a solid surface through an enzyme-linked reagent.)

In test [2] the target is T2, AE.A244 gp120 (HIV-1).
T2 construct: also called AE.A244 gD-gp120; E.A244gDneg
In words: ELISA.

Test [3] has as its target T3, AE.703359 gp120D11/Q169K (HIV-1).
T3 construct: also called AE.703359 gp120 Q169K
In words: ELISA.

In test [4] the target is T4, AE.427299 gp120/R168K/Q169K/Y173H/A174V (HIV-1).
T4 construct: also called AE.427299 gp120 Mut4
In words: ELISA.

The target in test [5] is T5, AE.A244 gp120D11/K169V (HIV-1).
T5 construct: also called A244 gp120 K169V; AE.A244 gp120/K169V
Put plainly: ELISA.

Test [6] addresses T6, AE.427299 gp120D11/Q169K (HIV-1).
T6 construct: also called AE.427299 gp120 Q169K
Put plainly: ELISA.

Test [7] deals with T7, AE.A244 gp120 D11/K169V/V172E/H173Y (HIV-1).
T7 construct: also called A244 gp120 Mut3
Put plainly: ELISA.

The target in test [8] is T8, AE.703359 gp120D11 (HIV-1).
T8 construct: also called AE; 703359 gp120 WT; AE.703357 (other spelling in the text)
Put plainly: ELISA.

Test [9] addresses T9, AE.427299 gp120D11 (HIV-1).
T9 construct: also called AE.427299 gp120 WT
Put plainly: ELISA.

The target of test [10] is T10, AE.703359 gp120D11/Q169K/R170Q/Q173H (HIV-1).
T10 construct: also called AE.703359 gp120 Mut3
Put plainly: ELISA.

Test [11] addresses T11, AE.A244 gp120 delta 11 (HIV-1).
T11 construct: also called E.A244gp120Δ11; AE.A244 Δ11 gp120
Put plainly: ELISA.

Test [12] deals with T12, AE.A244 V1/V2 tags, natively deglycosylated (HIV-1).
T12 construct: also called AE.A244V1V2 tags Degly
In words: ELISA.

Test [13] has as its target T1, AE.A244 gD+ gp120. Put plainly: ELISA. This is another data set of the same source.
The target of test [14] is AE.A244 V1V2 Tags (HIV-1). Put plainly: ELISA.
The target in test [15] is T2, AE.A244 gp120. Put plainly: ELISA. The source holds these as a separate data set.
Test [16] deals with J08 A.92RW020V1V2 (HIV-1). Put plainly: ELISA.
Test [17] deals with gp70 A.92RW020V1V2 (murine leukemia virus; HIV-1). In words: ELISA.
The target of test [18] is T13, J08 C.97ZA012V1V2 (HIV-1).
T13 chain: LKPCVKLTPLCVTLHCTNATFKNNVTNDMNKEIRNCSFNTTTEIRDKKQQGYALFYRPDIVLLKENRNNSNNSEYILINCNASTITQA
In words: ELISA.

Test [19] concerns the target J08 C.ZM109.V1V2 (HIV-1). Put plainly: ELISA.
In test [20] the target is J08 C.ZM109V1V2 N173D (HIV-1). Put plainly: ELISA.
For test [21], the target named is T14, AE.A244 V1/V2 Tags N156QN160Q (HIV-1).
T14 chain: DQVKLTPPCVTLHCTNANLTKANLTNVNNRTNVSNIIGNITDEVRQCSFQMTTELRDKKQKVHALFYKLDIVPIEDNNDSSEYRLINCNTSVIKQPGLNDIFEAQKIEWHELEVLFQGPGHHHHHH
In words: ELISA.

In test [22] the target is 92TH023 gp120 (HIV-1).
Test [23] has as its target T2, AE.A244 gp120.
Test [24] has as its target T15, AE.97CNG2XF gp140CF (HIV-1).
T15 construct: also called E.97CNGX2F gp140CF
Put plainly: ELISA, OD405 at 10 ug/ml.

Test [25] deals with AE.A244 V1V2 Tags (HIV-1). Put plainly: ELISA, OD405 at 10 ug/ml.
In test [26] the target is A.Q23 V1V2 tags (HIV-1). Put plainly: ELISA, OD405 at 10 ug/ml.
Test [27] has as its target D.9009SA V1/V2 tags. In words: ELISA, OD405 at 10 ug/ml.
The target in test [28] is T16, gp70 B.CaseA2 V1/V2 (HIV-1 V1V2 on murine leukemia virus gp70).
T16 construct: also called B.gp70CaseA2 V1/V2; gp70 B.CaseAV1V2
T16 chain: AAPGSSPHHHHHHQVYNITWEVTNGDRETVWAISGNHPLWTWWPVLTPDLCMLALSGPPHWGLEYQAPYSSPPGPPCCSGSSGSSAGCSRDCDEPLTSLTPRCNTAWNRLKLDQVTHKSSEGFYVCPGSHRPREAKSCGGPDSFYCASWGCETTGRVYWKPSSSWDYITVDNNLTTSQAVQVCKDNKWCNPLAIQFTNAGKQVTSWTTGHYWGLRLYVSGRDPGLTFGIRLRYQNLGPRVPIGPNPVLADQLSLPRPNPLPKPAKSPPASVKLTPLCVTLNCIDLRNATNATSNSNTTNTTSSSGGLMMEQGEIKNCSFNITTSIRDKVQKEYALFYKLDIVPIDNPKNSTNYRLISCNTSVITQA
Put plainly: ELISA.

The target of test [29] is A.Q23 V1V2 tags (HIV-1). In words: ELISA.
In test [30] the target is T16, gp70 B.CaseA2 V1/V2. Put plainly: ELISA.
Test [31] addresses A.Q23 V1V2 tags (HIV-1). Put plainly: ELISA. This is another data set of the same source.
Test [32] deals with T17, D.9009SA V1V2 Tags.
T17 Env construct: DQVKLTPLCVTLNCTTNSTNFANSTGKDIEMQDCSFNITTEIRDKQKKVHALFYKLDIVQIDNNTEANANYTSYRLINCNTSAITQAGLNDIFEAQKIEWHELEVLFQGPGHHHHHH
In words: ELISA, OD405.

Like-named read-outs stand apart in the source and are kept apart here. Some results are limits rather than exact numbers.

B1: CH59 (antibody, V domains shown)
VH: EVQLVESGGGLVQPGRSLRLSCAASGFTFDDGAMHWVRQAPGKGLEWVSGISWNSNIIAYADSVKGRFTISRDNAKNSLYLEMNSLRVEDTALYYCAKDSPRGELPLNYWGQGTLVTVSS
VL: SYELTQPPSVSVSPGQTARITCSGDALPKNYAYWYQQKSGQAPVLVIYEDSKRPSGIPERFSGSSSGTMATLTISGAQVEDEADYYCYSTDSSGNHRVFGGGTKLTVL
notes: also called mAb CH59
For the molecule B1, the EC50 in test [1] amounted to 0.04 nM; in test [2], 0.03 nM; in test [3], 1.2 µg/mL; in [4] it was 0.03 µg/mL; in test [5] it was 0.58 µg/mL; in test [10], 0.05 µg/mL. Besides, the concentration for a half-maximal effect (EC50) in [11] worked out at 0.029 µg/mL; in test [12], 0.0015 nM; in test [13] it was 0.04 nM; in test [14], 0.0018 nM; in test [15] it was 0.03 nM; in [16], 377 nM. The EC50 in test [17] was determined as 235 nM; in test [18] it was 107 nM; in test [19] it was 1.16 nM; in [20], 22 nM. Further, the binding result is reported as “no binding” in [6]; “no binding” in test [7]; “no binding” in test [8]; “no binding” in test [9]; “binds” in [21]. Moreover, the IC50 in test [22] and in test [23] was below 10 nM throughout.

B2: PG16 reverted unmutated ancestor antibody (antibody, V domains shown)
VH: QVQLVESGGGVVQPGRSLRLSCAASGFTFSSYGMHWVRQAPGKGLEWVAVISYDGSNKYYADSVKGRFTISRDNSKNTLYLQMNSLRAEDTAVYYCAREAGGPIWHDDVKYYDFNDGYYYYYYMDVWGKGTTVTVSS
VL: QSALTQPASVSGSPGQSITISCTGTSSDVGSYNLVSWYQQHPGKAPKLMIYEVSKRPSGVSNRFSGSKSGNTASLTISGLQAEDEADYYCCSLTDRSHRIFGGGTKLTVL
notes: also called PG16 RUA; PG16_RUA
For B2, the binding result in test [24], in test [25], in test [26] and in [27] was “no binding (tested: 10 ug/ml)” throughout.

B3: PG16 (antibody, V domains shown)
VH: QEQLVESGGGVVQPGGSLRLSCLASGFTFHKYGMHWVRQAPGKGLEWVALISDDGMRKYHSDSMWGRVTISRDNSKNTLYLQFSSLKVEDTAMFFCAREAGGPIWHDDVKYYDFNDGYYNYHYMDVWGKGTTVTVSS
VL: QSALTQPASVSGSPGQTITISCNGTSSDVGGFDSVSWYQQSPGKAPKVMVFDVSHRPSGISNRFSGSKSGNTASLTISGLHIEDEGDYFCSSLTDRSHRIFGGGTKVTVL
notes: also called mAb PG16; bnAb PG16
As to B3, the EC50 was 15 nM in test [1], 15 nM in [13] and 5.6 nM in test [14]. Moreover, the binding result in [21] is “no binding (tested: 100 ug/ml)”. For the same molecule, the IC50 in test [22] was in the range of 10 to 100 nM.

B4: 697D (antibody, V domains shown)
VH: QVQLVQSGAEVKKPGSSVKVSCKASGGNFNTYTISWVRQAPGQGLEWMGRIIPIFGIVNPAQKFPGRVTINVDKSTNTAYMELSSLRSEDTAVYYCATSGVGLHFGYFDYWGQGTQVTVSS
VL: QSVLTQPPSVSGAPGQRVTISCTGSSSNIGAHYDVHWYQQLPGTAPKLLIYGNSNRPSGVPDRFSGSKSGTSASLAITGLQAEDEADYYCQSYDSSLSGYVFGTGTKVTVL
notes: also called mAb 697D; V2 conformational mAb 697D
For B4, the EC50 in test [2] was 0.8 nM; in [28], 0.08 nM; in test [29], above 66.7 nM; in test [3], 0.51 µg/mL; in test [5] it was 0.06 µg/mL; in test [6] it was 0.13 µg/mL. Besides, the EC50 in [7] was 0.08 µg/mL; in test [8], 0.21 µg/mL; in [9], 0.07 µg/mL; in [10] it was 0.12 µg/mL; in [11], 0.1 µg/mL; in test [12], 3.6 nM. Also, the EC50 in [14] amounted to 0.6 nM; in test [15] it was 0.8 nM; in test [16], 0.07 nM; in [17] it was 14 nM; in [18] it was 0.06 nM; in test [19], 3 nM. Further, the results for the EC50 in [20], in [30] and in test [31] were 0.41 nM, 0.33 nM and above 66.7 nM, respectively. Also, the binding result in test [4] is given as “no binding”; in [32], “no binding (tested: 10 ug/ml)”. The molecule further yielded an IC50 in test [23] below 10 nM.

B5: 697D reverted unmutated ancestor antibody (antibody, V domains shown)
VH: QVQLVQSGAEVKKPGSSVKVSCKASGGTFSSYTISWVRQAPGQGLEWMGRIIPILGIANYAQKFQGRVTITADKSTSTAYMELSSLRSEDTAVYYCATSGVGLHFGYFDYWGQGTLVTVSS
VL: QSVLTQPPSVSGAPGQRVTISCTGSSSNIGAGYDVHWYQQLPGTAPKLLIYGNSNRPSGVPDRFSGSKSGTSASLAITGLQAEDEADYYCQSYDSSLSGYVFGTGTKVTVL
notes: also called 697D RUA
Regarding B5, the EC50 in [28], in test [29], in [30] and in test [31] was above 667 nM in each case.

By EC50 is commonly meant the midpoint of the concentration-response curve. Low readings indicate greater potency, high ones weaker potency. For orientation: IC50 means the point on the concentration scale where inhibition reaches its midpoint.
